Assay results published in the supplement of paper PMC9876800.

Tested on: peptide library, one residue held at a place counted from the S/T acceptor
Assay: relative phosphorylation of the sub-library (ratio to the mean residue at this position); higher = residue favoured
Method in brief: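 In 384-well plates, purified recombinant kinases (human or orthologue constructs) were incubated for 90 min under kinase-specific conditions with 50 μM biotinylated degenerate peptide sub-libraries and 50 μM ATP spiked with γ-32P-ATP. Each sub-library fixed a single residue at one position around a central Ser/Thr. Relative sub-library phosphorylation, measured by phosphorimaging and densitometry of streptavidin membrane spots, is given as a ratio to the mean residue at that position.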

MARK2, construct: Full length, human, sequence (Q7KZI7 whole entry, looked up): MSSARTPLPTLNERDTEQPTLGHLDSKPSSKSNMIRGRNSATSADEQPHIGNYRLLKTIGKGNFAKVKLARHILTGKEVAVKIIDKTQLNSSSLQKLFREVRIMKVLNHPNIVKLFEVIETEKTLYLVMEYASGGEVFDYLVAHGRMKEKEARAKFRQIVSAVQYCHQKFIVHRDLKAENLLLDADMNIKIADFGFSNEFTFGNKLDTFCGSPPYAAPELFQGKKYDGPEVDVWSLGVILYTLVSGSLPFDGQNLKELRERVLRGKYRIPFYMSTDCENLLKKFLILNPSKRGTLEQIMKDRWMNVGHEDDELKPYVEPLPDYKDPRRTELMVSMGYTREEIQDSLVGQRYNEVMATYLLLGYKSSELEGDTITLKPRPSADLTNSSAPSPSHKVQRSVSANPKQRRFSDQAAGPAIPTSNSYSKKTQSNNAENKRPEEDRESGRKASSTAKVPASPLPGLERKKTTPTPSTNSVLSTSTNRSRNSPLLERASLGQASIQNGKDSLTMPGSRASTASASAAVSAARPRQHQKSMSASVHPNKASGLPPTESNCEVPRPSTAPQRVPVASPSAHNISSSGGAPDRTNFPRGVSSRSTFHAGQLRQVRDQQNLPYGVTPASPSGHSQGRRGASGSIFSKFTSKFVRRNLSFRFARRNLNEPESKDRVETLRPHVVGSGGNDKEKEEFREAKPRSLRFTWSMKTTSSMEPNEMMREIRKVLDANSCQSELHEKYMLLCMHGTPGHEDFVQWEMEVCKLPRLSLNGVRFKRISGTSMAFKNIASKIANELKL
MAPKAPK3, construct: Full length, human, sequence (Q16644 whole entry, looked up): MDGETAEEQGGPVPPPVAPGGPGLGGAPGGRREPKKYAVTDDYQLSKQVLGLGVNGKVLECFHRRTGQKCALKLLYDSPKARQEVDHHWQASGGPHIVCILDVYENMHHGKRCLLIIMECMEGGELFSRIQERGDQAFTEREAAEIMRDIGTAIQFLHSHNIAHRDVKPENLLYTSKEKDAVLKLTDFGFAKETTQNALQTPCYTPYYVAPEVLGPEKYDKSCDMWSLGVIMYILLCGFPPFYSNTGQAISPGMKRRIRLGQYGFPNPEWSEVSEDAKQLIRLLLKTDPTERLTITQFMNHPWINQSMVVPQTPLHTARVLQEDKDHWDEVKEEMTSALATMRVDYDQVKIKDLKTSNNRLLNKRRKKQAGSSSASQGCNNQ
MARK4, construct: Full length, human, sequence (Q96L34 whole entry, looked up): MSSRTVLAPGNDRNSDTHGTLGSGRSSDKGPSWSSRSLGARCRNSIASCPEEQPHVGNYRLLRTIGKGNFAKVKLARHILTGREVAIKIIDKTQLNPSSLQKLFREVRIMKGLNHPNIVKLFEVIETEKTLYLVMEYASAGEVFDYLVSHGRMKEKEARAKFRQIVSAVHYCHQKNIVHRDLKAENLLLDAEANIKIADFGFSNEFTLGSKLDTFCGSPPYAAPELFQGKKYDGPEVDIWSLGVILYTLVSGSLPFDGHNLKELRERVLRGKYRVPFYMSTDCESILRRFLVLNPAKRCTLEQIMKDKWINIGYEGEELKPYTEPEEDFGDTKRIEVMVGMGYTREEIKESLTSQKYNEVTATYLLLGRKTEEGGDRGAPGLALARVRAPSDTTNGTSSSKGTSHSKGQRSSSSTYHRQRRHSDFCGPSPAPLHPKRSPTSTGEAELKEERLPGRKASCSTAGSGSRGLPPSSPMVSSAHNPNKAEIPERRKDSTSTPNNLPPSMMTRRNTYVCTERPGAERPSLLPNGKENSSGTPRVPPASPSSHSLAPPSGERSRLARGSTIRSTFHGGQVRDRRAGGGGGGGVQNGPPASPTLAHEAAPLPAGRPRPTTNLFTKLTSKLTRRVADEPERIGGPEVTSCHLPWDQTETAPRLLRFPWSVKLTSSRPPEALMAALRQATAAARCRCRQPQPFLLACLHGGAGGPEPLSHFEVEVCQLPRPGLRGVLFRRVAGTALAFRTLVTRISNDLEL
MAPKAPK5, construct: Full length, human, sequence (Q8IW41 whole entry, looked up): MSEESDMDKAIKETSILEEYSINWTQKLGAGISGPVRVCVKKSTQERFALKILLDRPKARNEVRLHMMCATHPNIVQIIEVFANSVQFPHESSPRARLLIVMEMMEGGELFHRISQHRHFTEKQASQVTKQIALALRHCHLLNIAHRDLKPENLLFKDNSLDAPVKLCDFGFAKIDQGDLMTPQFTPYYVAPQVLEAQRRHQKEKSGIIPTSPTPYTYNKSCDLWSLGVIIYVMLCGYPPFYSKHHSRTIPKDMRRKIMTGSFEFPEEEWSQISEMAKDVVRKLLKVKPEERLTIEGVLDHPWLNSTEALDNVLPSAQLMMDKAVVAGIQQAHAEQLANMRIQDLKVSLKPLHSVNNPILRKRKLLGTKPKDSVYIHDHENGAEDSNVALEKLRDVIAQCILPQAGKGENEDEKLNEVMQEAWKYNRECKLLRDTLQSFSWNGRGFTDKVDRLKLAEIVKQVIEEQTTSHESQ

MAPKAPK3, construct: Full length, human (from UniProt Q16644)
relative phosphorylation
Conditions | at +1 | at +2 | at +3 | at +4 | at -1 | at -2 | at -3 | at -4 | at -5
A fixed | 0.674 | 1.05 | 1.17 | 1.02 | 0.861 | 1.42 | 0.885 | 1.11 | 0.659
D fixed | 0.406 | 1.06 | 1.47 | 1.21 | 0.649 | 0.266 | 0.193 | 0.495 | 0.203
E fixed | 0.637 | 0.868 | 1.52 | 1.02 | 0.573 | 0.386 | 0.222 | 0.764 | 0.187
F fixed | 1.04 | 0.749 | 0.722 | 0.727 | 1.05 | 0.806 | 0.438 | 0.896 | 1.97
G fixed | 0.54 | 0.872 | 1.5 | 1.26 | 0.579 | 0.968 | 0.614 | 0.88 | 0.453
H fixed | 1.26 | 1.31 | 1.05 | 1.01 | 1.23 | 0.903 | 1.34 | 1.12 | 0.689
I fixed | 1.21 | 0.813 | 0.518 | 0.711 | 0.838 | 0.462 | 0.211 | 0.795 | 1.31
K fixed | 1.07 | 0.94 | 0.807 | 1.14 | 1.3 | 0.927 | 2.05 | 1.79 | 0.646
L fixed | 1.05 | 0.794 | 0.645 | 0.823 | 1.24 | 1.04 | 0.314 | 1.12 | 1.71
M fixed | 1.31 | 0.826 | 0.675 | 0.84 | 1.21 | 1.5 | 0.487 | 1.26 | 1.2
N fixed | 1.08 | 1.26 | 1.13 | 1.16 | 1.13 | 0.857 | 0.682 | 0.76 | 0.361
P fixed | 0.229 | 1.27 | 1.82 | 1.54 | 1.22 | 0.638 | 0.883 | 0.627 | 1.15
Q fixed | 1.21 | 1.13 | 1.01 | 1.15 | 0.973 | 2.92 | 0.919 | 1.13 | 0.688
R fixed | 1.7 | 1.26 | 0.851 | 1.04 | 1.23 | 1.6 | 6.2 | 1.64 | 1.41
V fixed | 1.45 | 0.974 | 0.707 | 0.758 | 0.99 | 0.724 | 0.252 | 0.872 | 1.13
W fixed | 0.878 | 0.795 | 0.66 | 0.919 | 0.716 | 0.786 | 0.796 | 0.804 | 2.1
Y fixed | 1.24 | 1.02 | 0.745 | 0.67 | 1.21 | 0.788 | 0.521 | 0.931 | 1.15
pThr fixed | 0.99 | 0.759 | 0.687 | 1.1 | 0.449 | 0.345 | 0.244 | 0.464 | 0.333
pTyr fixed | 1.79 | 0.934 | 1.05 | 0.812 | 0.732 | 0.334 | 0.233 | 0.572 | 0.563

MAPKAPK5, construct: Full length, human (from UniProt Q8IW41)
relative phosphorylation
Conditions | at +1 | at +2 | at +3 | at +4 | at -1 | at -2 | at -3 | at -4 | at -5
A fixed | 0.697 | 1.12 | 1.09 | 0.728 | 0.899 | 1.63 | 0.654 | 0.868 | 0.78
D fixed | 0.317 | 1.3 | 0.82 | 1.17 | 0.706 | 0.282 | 0.157 | 0.486 | 0.433
E fixed | 0.474 | 1.29 | 0.757 | 1.01 | 0.557 | 0.442 | 0.171 | 0.864 | 0.313
F fixed | 1.17 | 0.746 | 1.48 | 0.96 | 0.965 | 0.679 | 0.639 | 1.11 | 1.79
G fixed | 0.396 | 0.947 | 0.903 | 1.05 | 0.427 | 1.07 | 0.5 | 0.658 | 0.527
H fixed | 1.13 | 1.11 | 1.01 | 1.17 | 1.22 | 0.742 | 1.14 | 1.03 | 0.763
I fixed | 1.38 | 0.921 | 0.694 | 0.883 | 1.18 | 0.522 | 0.228 | 0.834 | 1.24
K fixed | 0.641 | 0.729 | 0.646 | 0.917 | 0.966 | 0.769 | 0.754 | 1.23 | 0.777
L fixed | 1.02 | 0.704 | 0.819 | 0.794 | 1.33 | 1.16 | 0.521 | 1.19 | 1.59
M fixed | 1.15 | 1 | 1.05 | 0.912 | 1.8 | 1.77 | 0.816 | 1.27 | 1.27
N fixed | 0.552 | 1.08 | 0.687 | 0.986 | 1.09 | 0.903 | 0.341 | 0.642 | 0.633
P fixed | 0.338 | 0.956 | 1.46 | 1.25 | 0.529 | 0.292 | 0.322 | 0.512 | 0.748
Q fixed | 1.13 | 1.23 | 0.672 | 0.898 | 0.935 | 2.85 | 0.696 | 0.93 | 0.62
R fixed | 0.931 | 0.972 | 0.602 | 0.968 | 1.38 | 1.55 | 7.97 | 1.32 | 1.28
V fixed | 1.84 | 1.24 | 1.1 | 0.768 | 1.04 | 0.608 | 0.267 | 0.813 | 0.894
W fixed | 2.06 | 0.716 | 1.48 | 1.41 | 0.822 | 0.861 | 0.935 | 1.82 | 1.89
Y fixed | 1.78 | 0.942 | 1.73 | 1.14 | 1.17 | 0.862 | 0.885 | 1.43 | 1.47
pThr fixed | 0.688 | 0.697 | 0.784 | 1.49 | 0.462 | 0.387 | 0.267 | 0.599 | 0.61
pTyr fixed | 2.04 | 1.96 | 1.2 | 1.41 | 1.28 | 1.36 | 0.297 | 1.26 | 0.914

MARK2, construct: Full length, human (from UniProt Q7KZI7)
relative phosphorylation
Conditions | at +1 | at +2 | at +3 | at +4 | at -1 | at -2 | at -3 | at -4 | at -5
A fixed | 0.661 | 0.734 | 0.723 | 0.42 | 1.08 | 2 | 0.814 | 1.24 | 1.05
D fixed | 0.564 | 0.774 | 2.49 | 0.401 | 0.73 | 0.399 | 0.458 | 0.956 | 0.844
E fixed | 0.799 | 1.09 | 0.957 | 0.353 | 0.654 | 0.338 | 0.52 | 0.924 | 0.899
F fixed | 0.754 | 0.856 | 0.934 | 0.625 | 0.534 | 1.35 | 0.897 | 0.947 | 1.07
G fixed | 0.6 | 0.488 | 0.517 | 0.388 | 2.43 | 1.32 | 0.775 | 1.16 | 0.977
H fixed | 0.796 | 1.06 | 1.35 | 0.44 | 0.834 | 1.29 | 1.3 | 1.11 | 0.947
I fixed | 1.16 | 0.984 | 0.682 | 3.42 | 0.568 | 0.511 | 0.548 | 0.635 | 0.932
K fixed | 0.738 | 0.476 | 0.474 | 0.271 | 1.45 | 0.982 | 1.86 | 1.3 | 1.16
L fixed | 1.22 | 1.16 | 0.965 | 5.46 | 0.755 | 0.456 | 0.56 | 0.727 | 1.51
M fixed | 2.28 | 1.12 | 0.896 | 1.64 | 0.936 | 0.711 | 0.911 | 0.911 | 1.11
N fixed | 1.12 | 1.15 | 2.48 | 0.37 | 1.05 | 0.698 | 0.734 | 1.01 | 0.846
P fixed | 0.387 | 0.616 | 0.222 | 0.3 | 1.24 | 0.475 | 0.839 | 0.884 | 0.759
Q fixed | 1.81 | 1.2 | 0.956 | 0.263 | 1.26 | 0.619 | 0.785 | 0.933 | 0.8
R fixed | 0.846 | 0.624 | 0.454 | 0.192 | 1.21 | 0.926 | 3.26 | 1.35 | 1.3
V fixed | 1.52 | 1.02 | 0.675 | 1.55 | 0.831 | 0.677 | 0.544 | 0.687 | 0.754
W fixed | 0.852 | 2.63 | 1.14 | 0.444 | 0.674 | 2.61 | 1.36 | 1.28 | 1.14
Y fixed | 0.898 | 1.02 | 1.08 | 0.464 | 0.77 | 1.64 | 0.842 | 0.947 | 0.909
pThr fixed | 1.29 | 0.81 | 0.381 | 0.287 | 0.37 | 0.438 | 0.518 | 0.756 | 0.656
pTyr fixed | 0.584 | 0.583 | 0.681 | 0.283 | 0.688 | 0.498 | 0.656 | 0.746 | 0.791

MARK4, construct: Full length, human (from UniProt Q96L34)
relative phosphorylation
Conditions | at +1 | at +2 | at +3 | at +4 | at -1 | at -2 | at -3 | at -4 | at -5
A fixed | 0.923 | 1 | 0.855 | 0.686 | 1.2 | 1.82 | 0.932 | 1.32 | 1.32
D fixed | 0.605 | 0.8 | 1.94 | 0.629 | 0.694 | 0.498 | 0.552 | 0.801 | 0.875
E fixed | 0.864 | 1.08 | 0.886 | 0.529 | 0.582 | 0.447 | 0.522 | 0.844 | 0.676
F fixed | 0.652 | 0.854 | 0.919 | 0.788 | 0.472 | 1.08 | 0.91 | 0.875 | 1.03
G fixed | 0.706 | 0.562 | 0.687 | 0.611 | 2.59 | 1.62 | 0.951 | 1.32 | 1.15
H fixed | 0.956 | 1.01 | 1.45 | 0.652 | 0.868 | 1.26 | 1.25 | 1.11 | 0.977
I fixed | 0.933 | 0.829 | 0.653 | 2.53 | 0.464 | 0.599 | 0.572 | 0.61 | 0.818
K fixed | 0.83 | 0.707 | 0.627 | 0.517 | 1.64 | 0.884 | 1.65 | 1.34 | 1.33
L fixed | 1.11 | 1.14 | 0.857 | 4.02 | 0.668 | 0.479 | 0.692 | 0.726 | 1.27
M fixed | 1.89 | 0.973 | 0.879 | 1.41 | 0.756 | 0.62 | 0.881 | 1.04 | 0.969
N fixed | 1.17 | 1.02 | 2.69 | 0.601 | 0.982 | 0.718 | 0.695 | 0.913 | 0.753
P fixed | 0.372 | 0.785 | 0.344 | 0.587 | 1.37 | 0.709 | 1.08 | 1.1 | 0.893
Q fixed | 1.74 | 1.11 | 0.894 | 0.576 | 1.3 | 0.6 | 0.751 | 0.775 | 0.81
R fixed | 1.12 | 0.826 | 0.592 | 0.41 | 1.36 | 0.97 | 2.57 | 1.34 | 1.2
V fixed | 1.29 | 0.872 | 0.634 | 1.27 | 0.721 | 0.682 | 0.634 | 0.711 | 0.972
W fixed | 0.9 | 2.44 | 0.961 | 0.58 | 0.581 | 2.41 | 1.42 | 1.17 | 1.13
Y fixed | 0.94 | 0.991 | 1.13 | 0.6 | 0.758 | 1.6 | 0.938 | 1 | 0.819
pThr fixed | 0.858 | 0.855 | 0.4 | 0.541 | 0.428 | 0.577 | 0.542 | 0.786 | 0.706
pTyr fixed | 0.58 | 0.648 | 0.716 | 0.471 | 0.618 | 0.611 | 0.636 | 0.802 | 0.681
